Experimental data: patent US20240309087A1 (SHANGHAI JUNSHI BIOSCIENCES, published 2024)
Substitutions are numbered along the chain they refer to.

T1: human CD112R on Jurkat CD112R effector cells (human, UniProt Q6DKI7 1-326)
T1 sequence (looked up): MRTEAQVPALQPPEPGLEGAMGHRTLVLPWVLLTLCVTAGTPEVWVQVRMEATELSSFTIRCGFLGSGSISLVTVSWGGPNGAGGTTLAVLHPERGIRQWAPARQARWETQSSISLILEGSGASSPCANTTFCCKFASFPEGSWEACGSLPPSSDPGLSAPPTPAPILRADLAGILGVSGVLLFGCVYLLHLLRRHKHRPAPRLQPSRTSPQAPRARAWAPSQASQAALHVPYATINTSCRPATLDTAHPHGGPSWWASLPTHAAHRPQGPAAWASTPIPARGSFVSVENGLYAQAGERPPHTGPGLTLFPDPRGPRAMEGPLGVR

T2: human CD112R on CHO-CD112R cells (human, UniProt Q6DKI7 41-326)
T2 construct: whole, on cells; also called hCD112R; PVRIG
T2 sequence (looked up): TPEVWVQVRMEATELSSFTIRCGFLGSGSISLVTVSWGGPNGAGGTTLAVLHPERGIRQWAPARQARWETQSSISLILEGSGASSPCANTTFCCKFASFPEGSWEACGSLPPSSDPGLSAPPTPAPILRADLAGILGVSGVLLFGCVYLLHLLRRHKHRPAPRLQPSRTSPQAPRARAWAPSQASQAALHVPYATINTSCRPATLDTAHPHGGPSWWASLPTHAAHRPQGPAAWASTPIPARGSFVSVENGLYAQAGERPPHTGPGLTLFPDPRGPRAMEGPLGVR

T3: recombinant cynomolgus monkey CD112R antigen (cynomolgus monkey, UniProt A0A2K5WVV8 1-322)
T3 construct: bought
T3 sequence: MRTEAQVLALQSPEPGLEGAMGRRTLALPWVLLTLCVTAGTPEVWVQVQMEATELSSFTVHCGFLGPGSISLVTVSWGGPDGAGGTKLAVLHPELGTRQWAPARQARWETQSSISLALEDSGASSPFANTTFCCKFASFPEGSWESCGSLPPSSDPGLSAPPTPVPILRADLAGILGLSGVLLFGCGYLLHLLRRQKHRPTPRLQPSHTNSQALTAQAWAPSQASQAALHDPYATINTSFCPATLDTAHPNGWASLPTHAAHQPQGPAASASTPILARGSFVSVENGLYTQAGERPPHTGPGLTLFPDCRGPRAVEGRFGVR

T4: hCD112R mFC recombinant protein (human; murine, UniProt Q6DKI7 41-160)
T4 construct: range 41-160; expressed in 293E cells; also called hCD112R ECD mFC; hCD112R-ECD-mFC; not shown: murine IgG2a Fc domain (MX2-mFc vector)
T4 sequence (looked up): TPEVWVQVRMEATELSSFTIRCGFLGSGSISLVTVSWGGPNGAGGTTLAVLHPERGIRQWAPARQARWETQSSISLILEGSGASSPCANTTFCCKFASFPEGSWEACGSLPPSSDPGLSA

B1: Chi-46 (antibody, V domains shown)
VH: DVKLVESGGGLVKLGGSLKLSCAASGFTFSSYHMSWVRQTPEKRLELVAAINSNVISTYYLDTVKGRFTISRDNAKNTLYLQMSSLKSEDTALYYCARHEDYYGFAMDYWGQGTSVTVSS
VL: SIVMTQTPKFLLVSAGDRVTITCKASQSVSNDVAWYQQKPGQSPKLLMYYVSNRFTGVPDRFTGSGYGTDFTFTINTVQAEDLAVYFCQQAYRSPWTFGGGTKLEIK
notes: chimeric
B2: Chi-47 (antibody, V domains shown)
VH: B1 VH
VL: B1 VL with S30T, R54H, F55Y, T63I, N76S
notes: chimeric
B3: Chi-62 (antibody, V domains shown)
VH: DVKLVESGGGLVKLGGSLKLSCAASGFTFSSYHMSWVRQTPEKRLELVAAISRDGDSTYYPDTVKGRFTISRDDAENTLYLQMSSLKSEDTALYYCSRHEDYFGFAMDSWGQGTSVTVSS
VL: B1 VL
notes: chimeric
B4: Chi-71 (antibody, V domains shown)
VH: B1 VH with K3Q, A23V, V37I, V55D, S57N, N74I, Y80H
VL: B1 VL with S30T, R54H, F55Y, T63I, N76S
notes: chimeric
B5: Chi-53 (antibody, V domains shown)
VH: B1 VH with V37I, V55G, S57N
VL: B1 VL with Q38E, N53H, Q89H
notes: chimeric
B6: Chi-55 (antibody, V domains shown)
VH: B1 VH with V37I, V55G, S57N
VL: B1 VL with S30T, R54H, F55Y, T63I, N76S
notes: chimeric
B7: Chi-69 (antibody, V domains shown)
VH: B1 VH with K3Q, A23V, V37I, V55D, S57N, N74I, Y80H
VL: B1 VL with Q38E, N53H, Q89H
notes: chimeric
B8: Chi-70 (antibody, V domains shown)
VH: B1 VH with K3Q, A23V, V37I, V55D, S57N, N74I, Y80H
VL: B1 VL
notes: chimeric
B9: 8H8.1 (antibody, V domains shown)
VH: EVKLVESGGGLVKPGGSLKVSCAASGFTFSDYPMSWVRQTPDKRLEWVACIDTDENTYYPDSVKGRFTISRDNGRNIVNLQMSSLRSEDAAMYYCARGWDDYAAWFAYWGQGTLVTVSA
VL: ENVLTQFPAIMSVFLGERVTMSCRASSSVNYMYWYQQKSDASPKLWIYHTSNLAPGVPARFSGSGSGNSYSLTISSMEGEDAATYYCQQFTSSPWTFGGGTKLEIK
notes: murine hybridoma antibody

target: T1, human CD112R on Jurkat CD112R effector …; experiment: cell-based or functional assay

Row | Binder | EC50, CD112R/CD112 reporter [µg/mL] | Relative activity (%), EC50 Ref/EC50 antibody [%]
1 | B1 | 0.00701 | 4610
2 | B2 | 0.014 | 2230
3 | B3 | 0.0129 | 2350
4 | B4 | 0.0194 | 1470
5 | B5 | 0.0129 | 2430
6 | B6 | 0.0131 | 2310
7 | B7 | 0.0187 | 1390
8 | B8 | 0.0139 | 1870

target: T2, human CD112R on CHO-CD112R cells; experiment: FACS on CHO-CD112R cells
Experimental: (§1) CHO-CD112R cells (constructed in-house by Junshi, the amino acid sequence of CD112R in the construction of stable cell lines overexpressing CD112R comprises amino acids at positions Met1-Arg326 under NCBI accession No. Q6DKI7) overexpressing human CD112R were incubated with each of the chimeric anti-CD112R antibodies at different concentrations (initial concentration: 50 μg/mL, 5-fold dilution, 12 concentration gradients in total) at 4° C. for 30 min, and then washed and incubated with a fluorescence-labeled secondary antibody at 4° C. for 30 min in the dark. Finally, the cells were collected by using a flow cytometer (BD Canto II), and the fluorescent antibodies bound to the cell surface were detected. Raw data were analyzed by using FlowJo to obtain MFI values, the antibody dose-dependent binding curves were fitted by using GraphPad (FIG. 3, a and b) and EC₅₀ was calculated (Table 3). The positive control and the negative control were Ref (anti-CD112R antibody, University of Colorado, obtained by expression and purification according to the sequences in US20170240613) and anti-KLH hu-IgG4 antibody, respectively.

Row | Binder | EC50 [µg/mL]
9 | B1 | 0.433
10 | B2 | 0.28
11 | B3 | 0.214
12 | B4 | 0.205
13 | B5 | 0.627
14 | B6 | 0.14
15 | B7 | 0.262
16 | B8 | 0.26

target: T3, recombinant cynomolgus monkey CD112R …; experiment: ELISA, coated cynomolgus monkey CD112R
Experimental: (§2) A plate was coated with a recombinant cynomolgus monkey CD112R antigen (Acrobiosystems, Cat No. PVG-C5259) at a fixed concentration, and the chimeric anti-CD112R antibodies diluted in a gradient (initial concentration: 1 μg/mL, 2.5-fold gradient dilution, 12 concentration gradients in total) were added to bind to the antigen. Horseradish peroxidase (HRP)-conjugated mouse anti-human IgG4 Fc (Southern Biotech, 9200-05) was subjected to a 5000-fold dilution and used as a detection antibody for detection. The color development was performed with 0.1 mg/mL TMB, and finally stopped with 2 M hydrochloric acid. The plate was read at 420 nm/620 nm. EC₅₀ was obtained by fitting with a four-parameter logistic regression (4PL) model.

Row | Binder | EC50 [µg/mL]
17 | B1 | 0.00326
18 | B2 | 0.00309
19 | B3 | 0.00371
20 | B4 | 0.00442
21 | B5 | 0.0033
22 | B6 | 0.00419
23 | B7 | 0.00474
24 | B8 | 0.00383

target: T2, human CD112R on CHO-CD112R cells; experiment: FACS on CHO-CD112R cells; EC50 Ref/EC50 antibody
Experimental: as §1

Row | Binder | Relative activity (%)
25 | B1 | 388
26 | B2 | 600
27 | B3 | 2000
28 | B4 | 2090
29 | B5 | 268
30 | B6 | 3050
31 | B7 | 1630
32 | B8 | 1640

target: T4, hCD112R mFC recombinant protein; experiment: FACS competition, hCD112R mFc on CHO CD112 cells
Experimental: (§3) Cells CHO CD112 overexpressing human CD112 were co-incubated with a hCD112R mFc protein solution (5 μg/mL) prepared in a staining buffer (PBS+1% FBS), and the chimeric anti-CD112R antibodies or the control antibodies at different concentrations (initial concentration: 100 μg/mL, 3-fold dilution, 10 concentration gradients) at 4° C. for 30 min. Unbound antibodies were then washed with a staining buffer and the cells were incubated with 1% (v/v) goat anti-mouse IgG Fc fluorescent secondary antibodies (Jackson ImmunoResearch) prepared in a staining buffer at 4° C. for 30 min in the dark. Finally, the cells were collected by using a flow cytometer (BD Canto II), and the fluorescent antibodies bound to the cell surface were detected. Raw data were analyzed by using FlowJo to obtain MFI values, and a four-parameter curve fitting was performed by using GraphPad Prism software to obtain IC₅₀ values. The positive control and the negative control were Ref (anti-CD112R antibody, University of Colorado, obtained by expression and purification according to the sequences in US20170240613) and the anti-KLH hu-IgG4 antibody, respectively.
As shown in FIG. 5 (a and b) and Table 8, the following 13 chimeric antibodies were all capable of effectively blocking the binding of the CD112R protein to CHO-CD112 cells.

Row | Binder | IC50 [µg/mL]
33 | B1 | 0.8
34 | B2 | 0.876
35 | B3 | 0.964
36 | B4 | 0.733
37 | B5 | 0.979
38 | B6 | 1.02
39 | B7 | 0.959
40 | B8 | 0.708

target: T4, hCD112R mFC recombinant protein; experiment: Biacore T200, antibody captured, hCD112R mFc injected
Experimental: Biacore T200 was used to assay the binding affinity of the anti-CD112R hybridoma antibodies for the recombinant hCD112R mFc protein. […] antibody fragments (Jackson ImmunoResearch) were coupled to the surface of a CM5 chip, and the anti-CD112R hybridoma antibodies were each captured by using the chip, after which recombinant hCD112R mFc proteins at different concentrations were injected into the CM5 chip.

Row | Binder | Kd [nM]
41 | B9 | 0.0588

target: T3, recombinant cynomolgus monkey CD112R …; experiment: ELISA, coated cynomolgus monkey CD112R; EC50 Ref/EC50 antibody
Experimental: as §2

Row | Binder | Relative activity (%)
42 | B1 | 107
43 | B2 | 113
44 | B3 | 113
45 | B4 | 94.8
46 | B5 | 106
47 | B6 | 100
48 | B7 | 88.4
49 | B8 | 109

target: T4, hCD112R mFC recombinant protein; experiment: FACS competition, hCD112R mFc on CHO CD112 cells; ratio Ref/antibody
Experimental: as §3

Row | Binder | Relative activity (%)
50 | B1 | 132
51 | B2 | 121
52 | B3 | 110
53 | B4 | 144
54 | B5 | 108
55 | B6 | 104
56 | B7 | 110
57 | B8 | 150

target: T4, hCD112R mFC recombinant protein; experiment: FACS blocking: hCD112R mFc (5 µg/mL) binding to human CD112 on CHO CD112 cells, MFI-APC; unit from the axis (µg/mL), Table 8 says ng/ml
Experimental: as §3

Row | Binder | IC50 [µg/mL]
58 | B1 | 0.8
59 | B2 | 0.876
60 | B3 | 0.964
61 | B4 | 0.733
62 | B5 | 0.979
63 | B6 | 1.02
64 | B7 | 0.959
65 | B8 | 0.708
